This note sets out measurements from IntAct's records for PubMed 31515488.

The chains are these.
B1: Melanoma-associated antigen 8 (Homo sapiens), P43361 (parent)
chain: MLLGQKSQRYKAEEGLQAQGEAPGLMDVQIPTAEEQKAASSSSTLIMGTLEEVTDSGSPSPPQSPEGASSSLTVTDSTLWSQSDEGSSSNEEEGPSTSPDPAHLESLFREALDEKVAELVRFLLRKYQIKEPVTKAEMLESVIKNYKNHFPDIFSKASECMQVIFGIDVKEVDPAGHSYILVTCLGLSYDGLLGDDQSTPKTGLLIIVLGMILMEGSRAPEEAIWEALSVMGLYDGREHSVYWKLRKLLTQEWVQENYLEYRQAPGSDPVRYEFLWGPRALAETSYVKVLEHVVRVNARVRISYPSLHEEALGEEKGV
B2: 5'-AMP-activated protein kinase subunit beta-2 (Homo sapiens), O43741 (parent)
chain: MGNTTSDRVSGERHGAKAARSEGAGGHAPGKEHKIMVGSTDDPSVFSLPDSKLPGDKEFVSWQQDLEDSVKPTQQARPTVIRWSEGGKEVFISGSFNNWSTKIPLIKSHNDFVAILDLPEGEHQYKFFVDGQWVHDPSEPVVTSQLGTINNLIHVKKSDFEVFDALKLDSMESSETSCRDLSSSPPGPYGQEMYAFRSEERFKSPPILPPHLLQVILNKDTNISCDPALLPEPNHVMLNHLYALSIKDSVMVLSATHRYKKKYVTTLLYKPI
partner: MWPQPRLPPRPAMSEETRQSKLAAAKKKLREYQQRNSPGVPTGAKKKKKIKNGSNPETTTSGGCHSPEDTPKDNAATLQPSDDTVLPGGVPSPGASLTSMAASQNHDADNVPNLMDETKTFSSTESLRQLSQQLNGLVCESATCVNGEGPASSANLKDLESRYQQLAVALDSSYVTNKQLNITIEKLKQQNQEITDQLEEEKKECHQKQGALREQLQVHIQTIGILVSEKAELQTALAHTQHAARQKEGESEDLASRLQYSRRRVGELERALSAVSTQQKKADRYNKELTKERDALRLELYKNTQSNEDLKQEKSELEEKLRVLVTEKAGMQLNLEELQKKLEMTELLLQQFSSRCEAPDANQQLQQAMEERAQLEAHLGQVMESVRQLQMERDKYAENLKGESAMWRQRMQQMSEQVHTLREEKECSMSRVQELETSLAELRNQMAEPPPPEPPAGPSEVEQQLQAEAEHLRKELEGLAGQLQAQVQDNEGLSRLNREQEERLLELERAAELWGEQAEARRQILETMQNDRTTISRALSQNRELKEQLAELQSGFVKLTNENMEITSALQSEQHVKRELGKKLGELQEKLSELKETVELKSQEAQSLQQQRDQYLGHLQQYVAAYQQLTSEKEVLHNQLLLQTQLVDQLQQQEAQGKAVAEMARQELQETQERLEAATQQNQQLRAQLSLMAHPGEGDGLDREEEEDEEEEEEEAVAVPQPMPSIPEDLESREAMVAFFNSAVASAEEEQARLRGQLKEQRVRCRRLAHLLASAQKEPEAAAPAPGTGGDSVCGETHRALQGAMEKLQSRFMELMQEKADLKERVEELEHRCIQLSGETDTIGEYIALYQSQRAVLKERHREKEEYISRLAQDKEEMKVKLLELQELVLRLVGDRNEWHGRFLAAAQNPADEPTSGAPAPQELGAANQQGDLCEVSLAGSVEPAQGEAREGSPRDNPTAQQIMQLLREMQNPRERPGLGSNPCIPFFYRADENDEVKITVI
B3: Protein ZNRD2 (Homo sapiens), O60232 (parent)
chain: MALNGAEVDDFSWEPPTEAETKVLQARRERQDRISRLMGDYLLRGYRMLGETCADCGTILLQDKQRKIYCVACQELDSDVDKDNPALNAQAALSQAREHQLASASELPLGSRPAPQPPVPRPEHCEGAAAGLKAAQGPPAPAVPPNTDVMACTQTALLQKLTWASAELGSSTSLETSIQLCGLIRACAEALRSLQQLQH
partner: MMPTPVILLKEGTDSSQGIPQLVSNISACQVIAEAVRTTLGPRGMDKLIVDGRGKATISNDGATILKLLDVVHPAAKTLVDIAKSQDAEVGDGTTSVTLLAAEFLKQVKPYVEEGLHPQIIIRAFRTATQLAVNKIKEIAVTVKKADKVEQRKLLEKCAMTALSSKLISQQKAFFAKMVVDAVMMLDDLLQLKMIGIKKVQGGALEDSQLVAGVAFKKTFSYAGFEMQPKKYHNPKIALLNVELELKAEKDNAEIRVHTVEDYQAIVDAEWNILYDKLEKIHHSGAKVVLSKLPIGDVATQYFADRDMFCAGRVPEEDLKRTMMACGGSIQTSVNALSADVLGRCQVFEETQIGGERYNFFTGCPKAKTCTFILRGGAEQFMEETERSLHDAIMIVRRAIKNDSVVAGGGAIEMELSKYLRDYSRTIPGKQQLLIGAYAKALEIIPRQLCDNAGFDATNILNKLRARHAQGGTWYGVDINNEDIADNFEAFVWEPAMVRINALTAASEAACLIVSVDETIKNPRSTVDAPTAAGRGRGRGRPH
B4: Microtubule-associated tumor suppressor candidate 2 (Homo sapiens), Q5JR59-3 (parent)
chain: MGHCCCKPYNCLQCLDKTNESALVKEKELSIELANIRDEVAFHTAKCEKLQKEKEELERRFEDEVKRLGWQQQAELQELEERLQLQFEAEMARLQEEHGDQLLSIRCQHQEQVEDLTASHDAALLEMENNHTVAITILQDDHDHKVQELMSTHELEKKELEENFEKLRLSLQDQVDTLTFQSQSLRDRARRFEEALRKNTEEQLEIALAPYQHLEEDMKSLKQVLEMKNQQIHEQEKKILELEKLAEKNIILEEKIQVLQQQNEDLKARIDQNTVVTRQLSEENANLQEYVEKETQEKKRLSRTNEELLWKLQTGDPTSPIKLSPTSPVYRGSSSGPSSPARVSTTPR
partner: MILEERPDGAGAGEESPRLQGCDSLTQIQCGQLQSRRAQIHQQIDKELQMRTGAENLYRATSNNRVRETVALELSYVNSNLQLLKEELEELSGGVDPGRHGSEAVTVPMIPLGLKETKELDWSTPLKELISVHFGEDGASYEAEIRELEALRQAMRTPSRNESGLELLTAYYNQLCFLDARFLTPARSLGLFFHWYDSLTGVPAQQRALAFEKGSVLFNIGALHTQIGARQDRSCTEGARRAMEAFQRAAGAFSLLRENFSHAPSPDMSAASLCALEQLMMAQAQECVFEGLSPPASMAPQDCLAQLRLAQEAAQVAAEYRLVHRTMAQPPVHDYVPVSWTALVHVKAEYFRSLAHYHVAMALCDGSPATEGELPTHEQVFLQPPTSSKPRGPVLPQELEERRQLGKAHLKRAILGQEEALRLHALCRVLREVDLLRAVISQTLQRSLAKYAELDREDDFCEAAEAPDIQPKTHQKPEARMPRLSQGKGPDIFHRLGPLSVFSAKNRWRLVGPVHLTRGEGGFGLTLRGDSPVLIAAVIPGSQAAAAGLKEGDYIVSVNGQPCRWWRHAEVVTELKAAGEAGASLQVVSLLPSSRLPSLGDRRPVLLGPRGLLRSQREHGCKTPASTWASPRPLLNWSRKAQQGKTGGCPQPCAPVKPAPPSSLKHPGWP
B5: Isoform 6 of F-box only protein 11 (Homo sapiens), Q86XK2-6 (parent)
chain: MVAEESGPGAQNSPYQLRRKTLLPKRTACPTKNSMEGASTSTTENFGHRAKRARVSGKSQDLSAAPAEQYLQEKLPDEVVLKIFSYLLEQDLCRAACVCKRFSELANDPILWKRLYMEVFEYTRPMMHPEPGKFYQINPEEYEHPNPWKESFQQLYKGAHVKPGFAEHFYSNPARYKGRENMLYYDTIEDALGGVQEAHFDGLIFVHSGIYTDEWIYIESPITMIGAAPGKVADKVIIENTRDSTFVFMEGSEDAYVGYMTIRFNPDDKSAQHHNAHHCLEITVNCSPIIDHCIIRSTCTVGSAVCVSGQGACPTIKHCNISDCENVGLYITDHAQGIYEDNEISNNALAGIWVKNHGNPIIRRNHIHHGRDVGVFTFDHGMGYFESCNIHRNRIAGFEVKAYANPTVVRCEIHHGQTGGIYVHEKGRGQFIENKIYANNFAGVWITSNSDPTIRGNSIFNGNQGGVYIFGDGRGLIEGNDIYGNALAGIQIRTNSCPIVRHNKIHDGQHGGIYVHEKGQGVIEENEVYSNTLAGVWVTTGSTPVLRRNRIHSGKQVGVYFYDNGHGVLEDNDIYNHMYSGVQIRTGSNPKIRRNKIWGGQNGGILVYNSGLGCIEDNEIFDNAMAGVWIKTDSNPTLRRNKIHDGRDGGICIFNGGRGLLEENDIFRNAQAGVLISTNSHPILRKNRIFDGFAAGIEITNHATATLEGNQIFNNRFGGLFLASGVNVTMKDNKIMNNQDAIEKAVSRGQCLYKISSYTSYPMHDFYRCHTCNTTDRNAICVNCIKKCHQGHDVEFIRHDRFFCDCGAGTLSNPCTLAGEPTHDTDTLYDSAPPIESNTLQHN
B6: Homeobox protein VENTX (Homo sapiens), O95231 (parent)
chain: MRLSSSPPRGPQQLSSFGSVDWLSQSSCSGPTHTPRPADFSLGSLPGPGQTSGAREPPQAVSIKEAAGSSNLPAPERTMAGLSKEPNTLRAPRVRTAFTMEQVRTLEGVFQHHQYLSPLERKRLAREMQLSEVQIKTWFQNRRMKHKRQMQDPQLHSPFSGSLHAPPAFYSTSSGLANGLQLLCPWAPLSGPQALMLPPGSFWGLCQVAQEALASAGASCCGQPLASHPPTPGRPSLGPALSTGPRGLCAMPQTGDAF
partner: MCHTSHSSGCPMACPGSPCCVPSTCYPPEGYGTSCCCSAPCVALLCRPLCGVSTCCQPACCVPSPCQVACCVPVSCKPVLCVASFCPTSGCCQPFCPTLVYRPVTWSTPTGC
B7: Transcription factor 12 (Homo sapiens), Q99081 (parent)
chain: MNPQQQRMAAIGTDKELSDLLDFSAMFSPPVNSGKTRPTTLGSSQFSGSGIDERGGTTSWGTSGQPSPSYDSSRGFTDSPHYSDHLNDSRLGAHEGLSPTPFMNSNLMGKTSERGSFSLYSRDTGLPGCQSSLLRQDLGLGSPAQLSSSGKPGTAYYSFSATSSRRRPLHDSAALDPLQAKKVRKVPPGLPSSVYAPSPNSDDFNRESPSYPSPKPPTSMFASTFFMQDGTHNSSDLWSSSNGMSQPGFGGILGTSTSHMSQSSSYGNLHSHDRLSYPPHSVSPTDINTSLPPMSSFHRGSTSSSPYVAASHTPPINGSDSILGTRGNAAGSSQTGDALGKALASIYSPDHTSSSFPSNPSTPVGSPSPLTGTSQWPRPGGQAPSSPSYENSLHSLQSRMEDRLDRLDDAIHVLRNHAVGPSTSLPAGHSDIHSLLGPSHNAPIGSLNSNYGGSSLVASSRSASMVGTHREDSVSLNGNHSVLSSTVTTSSTDLNHKTQENYRGGLQSQSGTVVTTEIKTENKEKDENLHEPPSSDDMKSDDESSQKDIKVSSRGRTSSTNEDEDLNPEQKIEREKERRMANNARERLRVRDINEAFKELGRMCQLHLKSEKPQTKLLILHQAVAVILSLEQQVRERNLNPKAACLKRREEEKVSAVSAEPPTTLPGTHPGLSETTNPMGHM
partner: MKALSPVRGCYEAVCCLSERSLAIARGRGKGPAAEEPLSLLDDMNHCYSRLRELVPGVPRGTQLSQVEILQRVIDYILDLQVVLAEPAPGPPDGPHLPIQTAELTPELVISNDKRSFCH

Variants of B1 are the subject of one experiment. The following applies: with bex5_human BEX5, Q5H9J7.
Sequence of bex5_human BEX5, Q5H9J7 (Q5H9J7 whole entry): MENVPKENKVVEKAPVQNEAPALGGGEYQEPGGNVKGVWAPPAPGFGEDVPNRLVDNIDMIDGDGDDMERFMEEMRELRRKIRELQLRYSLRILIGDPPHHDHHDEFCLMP
Regarding R121H, the “effect of a mutation on the interaction” value is given as “with no effect”.

In the case of R9C, the “effect of a mutation on the interaction” value was “with no effect”.

The variants in another experiment derive from B2. Particulars: with goga2_human GOLGA2, Q08379.
As to G55E, the “effect of a mutation on the interaction” value is given as “with no effect”.

The next experiment covers variants of B3. The following applies: with tcph_human CCT7, Q99832.
T21M: the “effect of a mutation on the interaction” value is recorded as “with no effect”.

In the next experiment the parent is B4. The following applies: with rhpn1_human RHPN1, Q8TCX5.
With A89V, the “effect of a mutation on the interaction” value is on record as “with no effect”.

Variants of B5 are the subject of another experiment. Particulars: with skp1_human SKP1, P63208.
Sequence of skp1_human SKP1, P63208 (P63208 whole entry): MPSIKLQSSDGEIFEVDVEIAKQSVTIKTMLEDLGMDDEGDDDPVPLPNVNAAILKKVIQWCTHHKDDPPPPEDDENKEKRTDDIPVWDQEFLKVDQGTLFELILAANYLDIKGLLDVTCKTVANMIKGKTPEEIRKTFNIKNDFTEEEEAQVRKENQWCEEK
In the case of D507N, the “effect of a mutation on the interaction” value is “with no effect”.

In the case of T532S, the “effect of a mutation on the interaction” value is recorded as “with no effect”.

With A703T, the “effect of a mutation on the interaction” value was “with no effect”.

Variants of B6 are the subject of a further experiment. Particulars: with kr124_human KRTAP12-4, P60329.
Take M251V: the “effect of a mutation on the interaction” value is “with no effect”.

In the case of L42P, the “effect of a mutation on the interaction” value was “with no effect”.

For the variant A226E, the “effect of a mutation on the interaction” value was “with no effect”.

In another experiment the parent is B7. Particulars: with id3_human ID3, Q02535.
With G300S, the “effect of a mutation on the interaction” value is listed as “with no effect”.
